One block for each substance: values may come before it.
Target: insulin receptor partially purified from CHO-IR cells (Chinese Hamster Ovary cells expressing high levels of insulin receptors of human origin) (human) (UniProt P06213)
Assay: cell-based or functional assay

GST-PIR+SH2 of rGrb14, sequence (O88900 353-538): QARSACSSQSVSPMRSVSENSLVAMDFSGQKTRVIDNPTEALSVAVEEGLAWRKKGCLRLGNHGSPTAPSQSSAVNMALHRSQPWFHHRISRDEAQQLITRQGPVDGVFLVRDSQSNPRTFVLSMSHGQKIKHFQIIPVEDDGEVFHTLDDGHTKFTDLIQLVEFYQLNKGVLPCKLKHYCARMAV
GST-rGrb14, sequence (O88900 whole entry): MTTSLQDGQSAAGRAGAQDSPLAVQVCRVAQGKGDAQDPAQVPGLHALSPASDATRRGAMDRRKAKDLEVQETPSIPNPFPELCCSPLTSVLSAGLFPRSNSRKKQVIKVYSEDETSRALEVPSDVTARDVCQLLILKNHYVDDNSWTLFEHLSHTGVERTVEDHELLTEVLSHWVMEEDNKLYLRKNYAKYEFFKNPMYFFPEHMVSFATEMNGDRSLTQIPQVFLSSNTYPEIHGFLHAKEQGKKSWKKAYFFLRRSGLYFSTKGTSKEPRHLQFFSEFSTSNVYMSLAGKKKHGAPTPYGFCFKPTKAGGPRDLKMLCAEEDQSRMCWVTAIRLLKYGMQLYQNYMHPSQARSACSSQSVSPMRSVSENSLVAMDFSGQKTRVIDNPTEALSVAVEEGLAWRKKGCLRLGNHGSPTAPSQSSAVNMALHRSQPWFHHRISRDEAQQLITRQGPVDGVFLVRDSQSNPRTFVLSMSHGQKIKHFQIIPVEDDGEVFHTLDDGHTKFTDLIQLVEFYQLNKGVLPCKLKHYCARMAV

amount giving total inhibition of the tyrosine kinase activity of the insulin receptors: 0.3 µg
Substance: GST-PIR of rGrb14 (from UniProt O88900 353-436)

amount giving the maximum inhibitory effect on the tyrosine kinase activity of the insulin receptors: 0.03 µg
Substance: GST-PIR+SH2 of rGrb14 (from UniProt O88900 353-538)

maximum inhibition of the tyrosine kinase activity of the insulin receptors: 40%
Substance: GST-rGrb7 (from UniProt Q9QZC5 1-535)

amount giving 50% inhibition of the tyrosine kinase activity of the receptors (32P incorporation into poly Glu-Tyr): 0.04 µg
Substance: GST-rGrb14 (from UniProt O88900 1-538)

Reference: patent publication US6867003
